According to paper PMC9969694, “YULINK regulates vascular formation in zebrafish and HUVECs” (Biological Research, 2023):
Blank lines part the entries; values can stand above or below the molecule they belong to.

Experiments:
Test in all cases: FRET or BRET; FLIM-FRET in HEK-293 T cells 48 h after co-transfection; AcGFP donor on YULINK (full-length or truncated), DsRed acceptor on the partner; mean fluorescence lifetime τ of AcGFP and FRET efficiency E; AcGFP-YULINK alone about 2.71 ns
AcGFP-YULINKΔN (human) = target: AcGFP-YULINKΔN (human)
AcGFP-YULINKΔC (human) = target: AcGFP-YULINKΔC (human)
[1] = target: T1, AcGFP-YULINK (full-length) (human, UniProt Q9NXC5-1 1-875); settings: partners not purified
T1 construct: YULINK, full-length, conjugated with AcGFP; also called full-length AcGFP-YULINK; source: HEK-293 T, co-transfected, in live cells
T1 sequence (looked up): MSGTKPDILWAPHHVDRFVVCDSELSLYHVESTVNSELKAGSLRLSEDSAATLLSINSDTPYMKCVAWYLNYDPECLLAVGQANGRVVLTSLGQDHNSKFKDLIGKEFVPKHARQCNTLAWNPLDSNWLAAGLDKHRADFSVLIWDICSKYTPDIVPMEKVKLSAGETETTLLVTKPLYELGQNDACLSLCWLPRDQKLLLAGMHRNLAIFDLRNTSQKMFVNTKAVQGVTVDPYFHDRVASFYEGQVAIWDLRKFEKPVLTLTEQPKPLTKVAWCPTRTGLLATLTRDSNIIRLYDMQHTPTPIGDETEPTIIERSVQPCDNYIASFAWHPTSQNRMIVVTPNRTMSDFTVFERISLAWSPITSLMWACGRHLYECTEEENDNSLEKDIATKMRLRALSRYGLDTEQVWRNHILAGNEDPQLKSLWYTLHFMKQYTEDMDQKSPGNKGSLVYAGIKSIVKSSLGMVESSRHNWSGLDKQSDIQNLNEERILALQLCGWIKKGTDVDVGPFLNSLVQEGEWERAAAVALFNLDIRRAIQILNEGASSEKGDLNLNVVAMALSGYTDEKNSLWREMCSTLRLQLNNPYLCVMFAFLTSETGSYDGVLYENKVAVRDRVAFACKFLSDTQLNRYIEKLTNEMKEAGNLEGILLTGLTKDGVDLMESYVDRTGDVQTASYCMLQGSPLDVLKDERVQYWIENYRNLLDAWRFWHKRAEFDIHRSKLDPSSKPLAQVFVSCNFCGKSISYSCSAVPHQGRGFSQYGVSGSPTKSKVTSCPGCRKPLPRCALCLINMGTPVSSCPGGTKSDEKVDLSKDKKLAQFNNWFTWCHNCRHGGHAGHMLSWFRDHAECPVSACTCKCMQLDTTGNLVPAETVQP

- FRET efficiency E (AcGFP-YULINKΔN (human)): 36.5%
- mean fluorescence lifetime τ of the donor (AcGFP-YULINKΔN (human)): 1.72 ns
Molecule: DsRed-RAB33B (from UniProt Q9H082 1-229) (natural protein)

- FRET efficiency E [1]: 8.1%
- mean fluorescence lifetime τ of the donor [1]: 2.49 ns
B1: DsRed-RAB33B (natural protein, human, UniProt Q9H082 1-229, looked up)
chain: MAEEMESSLEASFSSSGAVSGASGFLPPARSRIFKIIVIGDSNVGKTCLTYRFCAGRFPDRTEATIGVDFRERAVEIDGERIKIQLWDTAGQERFRKSMVQHYYRNVHAVVFVYDMTNMASFHSLPSWIEECKQHLLANDIPRILVGNKCDLRSAIQVPTDLAQKFADTHSMPLFETSAKNPNDNDHVEAIFMTLAHKLKSHKPLMLSQPPDNGIILKPEPKPAMTCWC
notes: RAB33B conjugated with DsRed; source: HEK-293 T, co-transfected, in live cells

Further lines, the molecule ahead of its results:

Molecule: DsRed-TICAM2 (from UniProt Q86XR7 1-235) (natural protein)
- FRET efficiency E (AcGFP-YULINKΔN (human)): 19.6%
- mean fluorescence lifetime τ of the donor (AcGFP-YULINKΔN (human)): 2.18 ns
- FRET efficiency E (AcGFP-YULINKΔC (human)): 17.7%
- mean fluorescence lifetime τ of the donor (AcGFP-YULINKΔC (human)): 2.23 ns

B2: DsRed-EPS15 (natural protein, human, UniProt P42566 1-896, looked up)
chain: MAAAAQLSLTQLSSGNPVYEKYYRQVDTGNTGRVLASDAAAFLKKSGLPDLILGKIWDLADTDGKGILNKQEFFVALRLVACAQNGLEVSLSSLNLAVPPPRFHDTSSPLLISGTSAAELPWAVKPEDKAKYDAIFDSLSPVNGFLSGDKVKPVLLNSKLPVDILGRVWELSDIDHDGMLDRDEFAVAMFLVYCALEKEPVPMSLPPALVPPSKRKTWVVSPAEKAKYDEIFLKTDKDMDGFVSGLEVREIFLKTGLPSTLLAHIWSLCDTKDCGKLSKDQFALAFHLISQKLIKGIDPPHVLTPEMIPPSDRASLQKNIIGSSPVADFSAIKELDTLNNEIVDLQREKNNVEQDLKEKEDTIKQRTSEVQDLQDEVQRENTNLQKLQAQKQQVQELLDELDEQKAQLEEQLKEVRKKCAEEAQLISSLKAELTSQESQISTYEEELAKAREELSRLQQETAELEESVESGKAQLEPLQQHLQDSQQEISSMQMKLMEMKDLENHNSQLNWCSSPHSILVNGATDYCSLSTSSSETANLNEHVEGQSNLESEPIHQESPARSSPELLPSGVTDENEVTTAVTEKVCSELDNNRHSKEEDPFNVDSSSLTGPVADTNLDFFQSDPFVGSDPFKDDPFGKIDPFGGDPFKGSDPFASDCFFRQSTDPFATSSTDPFSAANNSSITSVETLKHNDPFAPGGTVVAASDSATDPFASVFGNESFGGGFADFSTLSKVNNEDPFRSATSSSVSNVVITKNVFEETSVKSEDEPPALPPKIGTPTRPCPLPPGKRSINKLDSPDPFKLNDPFQPFPGNDSPKEKDPEIFCDPFTSATTTTNKEADPSNFANFSAYPSEEDMIEWAKRESEREEEQRLARLNQQEQEDLELAIALSKSEISEA
notes: EPS15 conjugated with DsRed; also called DsRed-ESP15; source: HEK-293 T, co-transfected, in live cells
- FRET efficiency E [1]: 11.4%
- mean fluorescence lifetime τ of the donor [1]: 2.4 ns
